Experiment [1] addresses Human Recombinant FcγR receptor IIA/CD32a (human) (UniProt P12318). The experiment in a line: ELISA. For orientation: An ELISA detects its analyte on a solid surface through an enzyme-linked reagent.
Experiment [2] addresses the FcγR. The experiment in a line: fluorescence correlation spectroscopy.

UniProt P12318, sequence (P12318 34-217): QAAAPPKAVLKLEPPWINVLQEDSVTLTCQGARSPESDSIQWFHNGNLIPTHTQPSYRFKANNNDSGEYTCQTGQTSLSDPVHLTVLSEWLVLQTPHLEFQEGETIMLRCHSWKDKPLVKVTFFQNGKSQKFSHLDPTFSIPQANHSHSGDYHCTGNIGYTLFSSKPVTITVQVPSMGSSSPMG

Regarding immune complex of C11-LALA with FLSC, the EC50 in experiment [1] was 0.6 nM. With immune complex of N5-i5-LALA with FLSC, in experiment [1], the EC50 turned out to be 6 nM. In turn, human IgG1 mAb C11-LALA (antibody) returned a stoichiometry N in experiment [2] of 1. Same read-out and setting: the result for human IgG1 mAb N5-i5-LALA (antibody) reads 1.

One may read the EC50 as the concentration that produces a half-maximal response. In general, stoichiometry N refers to a count of units in the complex or per binding partner.
